Assay results: PMC12995615 (Frontiers in Immunology, 2026)

Biological target: Influenza H1 (A/Brisbane/59/2007) HA Clamp (Influenza A virus …, UniProt D5F1Q8, stabilised)
Test: ELISA
Settings: both partners purified

B1: recombinant bat antibody C05 with human signal peptide (bat C05Hsp) (antibody, V domains shown)
VH: QVQLQESGGGLVQPGESLRLSCVGSGSSFGESTLSYYAVSWVRQAPGKGLEWLSIINAGGGDIDYADSVEGRFTISRDNSKETLYLQMTNLRVEDTGVYYCAKHMSMQQVVSAGWERADLVGDAFDVWGQGTMVTVSS
VL: DIQLTQSPSSLSASVGDRVTLTCQASQDIRKFLNWYQQKPGKGPKLLIYDASNLQRGVPSRFSGGGSGTDFTLIISSLQPEDVGTYYCQQYDGLPFTFGGGTKVVIK
notes: also called bC05Hsp; ReBA
Q: With B1 as the binder, how does the Kd read?
A: 0.25 nM

B2: recombinant bat antibody C05 with bat signal peptide (bC05Bsp) (antibody, V domains shown)
VH: B1 VH
VL: B1 VL
notes: also called ReBA
Q: How did the Kd turn out when B2 was run?
A: 0.39 nM
